For one molecule, gMFI results are on record in patent US20250277003A1 (OSAKA UNIVERSITY, published 2025).

Experiment [1] has as its target BtCoV BM48-31 spike RBD (BtCoV BM48-31). The experiment can be described thus: bead flow cytometry. In general terms: In flow cytometry, cells or beads pass a laser one at a time.
In experiment [2] the target is WIV1-CoV spike RBD (WIV1-CoV). The experiment can be described thus: bead flow cytometry.

B1: mAb CR3022 (antibody, V domains shown)
VH: QMQLVQSGTEVKKPGESLKISCKGSGYGFITYWIGWVRQMPGKGLEWMGIIYPGDSETRYSPSFQGQVTISADKSINTAYLQWSSLKASDTAIYYCAGGSGISTPMDVWGQGTTVTVSS
VL: not shown
B1: the gMFI in experiment [1] was 72; in experiment [2], 22300.
